The text below walks through data of patent US20090312252A1, “Antimicrobial Activity in Variants of Lacritin” (priority 2006, published 2009).

Where no end group is shown, it is not given here.

In one data set the test system is E. coli (ATCC #10536). Format: cell-based. Conditions: colony forming unit assay, phosphate buffer, 37°C; by extrapolation of concentration curves. As for the experimental part:
(§1) Antimicrobial Assays. The antimicrobial activities were tested using a colony forming unit assay. E. coli (ATCC #10536) was grown in LB medium at 37° C. to an OD600 of 0.5. The cells were washed 3 times in phosphate buffer (pH 7.2) and resuspended in 1 ml of the same buffer. The cells were then diluted 1:100 using two 10 fold serial dilutions. Following dilutions, 50 μl of cells were incubated with 100 μl of sample protein and 350 μl of phosphate buffer at 37° C. In place of sample protein, 100 μl of 10 mM phosphate buffered saline (pH 7.4) was used as the control sample. Following incubation, the cells were diluted 1:10 before plating 100 μl-200 μl in quadruplicates. The plates were incubated overnight at 37° C. and colony forming units were counted. The percentage of cell death was expressed using the following equation, [1-(cells surviving peptide)/(average colonies counted from PBS control)]×100%. The LC50 is defined as the lethal concentration of peptide required to kill 50 percent of the present bacteria and was determined for each Lacritin variant by extrapolation of concentration curves.
Lethal concentrations (μg/ml) of lacritin constructs required to kill 50 percent of E. coli in the antimicrobial assay. Lacritin is full length mature lacritin without signal peptide. N-XX denotes the number of amino acids removed from the N-terminal of mature lacritin and C-XX denotes the number of amino acids removed from the C-terminal of mature lacritin.

A further data set has as its system E. coli. Description: Antimicrobial activity assay, colony forming units after incubation with E. coli (Example 2, FIGS. 4 and 5). Format: cell-based. Conditions: for average colony forming units / CFU as % of the control: four hours incubation at 37°C; for % of the bacteria killed: four hours incubation. As for the experimental part: Purified recombinant lacritin variant proteins were assayed for antimicrobial activity by standard methods that involves an incubation period with actively growing bacteria and the protein of interest followed by plating on agar plates supplemented with growth media. The agar plates are incubated overnight and individual colonies are counted and expressed as Colony Forming Units (CFUs). The number of CFUs can be compared to the same bacteria incubated without protein.
E. coli at exponential growth (OD600=0.5) were washed twice in Phosphate Buffer (PB) diluted to a concentration of 1×10^6 cells/ml in PB and incubated with PB (no protein) or test proteins at 37° C. Samples were diluted and plated in triplicate on LB plates after four hours of incubation. Plates were grown at 37° C. overnight and counted. Colony counts were averaged and plotted as CFU/ml×10^3. The incubation volume was 0.5 ml at 25 mM NaCl.
C-25 was tested at a concentration of 53 μg/ml and N-71 was tested at various concentrations in μg/ml as shown in parentheses. pLAC is full length recombinant mature lacritin, and was tested at a concentration of 46 μg/ml. Bacteria incubated with buffer alone (the control) produced an average of 77×10^3 CFU/ml. Incubation with the lacritin variant C-25 produced an average of 79×10^3 or 103% of the control. […] The full-length recombinant lacritin protein (PLAC) produced an average of 38×10^3 CFU/ml or 49% of the control. The variant protein N-71 produced a concentration dependent antimicrobial activity that was less than 1% of the control at a concentration of 28 μg/ml.
The variant lacritin proteins were tested at the concentrations shown in parentheses in μg/ml. Bacteria incubated with buffer alone (the PB control) produced an average of 161×10^3 CFU/ml. Incubation with the lacritin variant N-24 produced an average of 108×10^3 or […] of the control. […] The variant protein N-35 produced an average of 25×10^3 CFU/ml or 16% of the control and the variant N-45 produced an average of 42×10^3 CFU/ml or 26% of the control. These variants are active in antimicrobial activity killing 84% and 74% respectively of the bacteria under the conditions tested. The variant N-55 produced an average of 2×10^3 CPU/ml or 0.01% of the control, the variant N-65 produced an average of 6×10^3 CFU/ml or 0.04% of the control, and the variant N-71 produced an average of 1×10^3 CFU/ml or 0.01% of the control.

The conditions of data set [1]: topical application to the eyes of rabbits; cited from earlier work.
For the next data set, the system named is E. coli ML-35. Description: Inner membrane permeabilization, ONPG conversion by cytoplasmic β-galactosidase (FIG. 11). The format is cell-based. Conditions: 30 μg/ml; room temperature, 18 hours. As to the method: Inner Membrane Permeabilization. To examine the affect of Lacritin constructs on the inner membrane of gram negative bacteria, an enzymatic assay was conducted using a strain of permease-deficient E. coli, designated E. coli ML-35 (ATCC #43827) which also constitutively produces cytoplasmic βeta-galactosidase. E. coli ML-35 were grown in LB medium for 20 hours at 37° C. as a saturated overnight and then diluted with LB to an absorbance OD600 of 0.5. The cells were washed 3 times in 10 mM sodium phosphate buffer-10 mM NaCl (pH 7.2) and resuspended in 1 ml of the same buffer. The cells were then diluted 1:100 in 10 mM sodium phosphate buffer using two serial 10-fold dilutions. 70 μl of phosphate buffer, 30 μl of 30 mM βeta-galactosidase substrate ONPG (o-nitrophenyl-β-D-galactopyranoside) in 20 mM sodium phosphate buffer, 100 μl of cells in 10 mM sodium phosphate buffer and 50 μl of peptide sample were added to microtiter plate wells in duplicate. The production of ONP (o-nitrophenyl) from ONPG was measured over time using a spectrophotometer set at a wavelength of 415 nm.
Mature Lacritin (pLac) and various constructs of Lacritin were incubated with permease-deficient E. coli ML-35 at room temperature for 18 hours. The conversion of ONPG (o-nitrophenyl-β-D-galactopyranoside) to ONP (o-nitrophenyl) by cytoplasmic β-galactosidase was measured by a spectrophotometer at 415 nm. […]

Data set [2] relates to human salivary gland cells. Conditions: recombinant lacritin produced in bacteria; cultured human salivary gland cells; cited from earlier work.
Data set [3] has as its system Staphylococcus epidermidis. Description: Colony forming unit antimicrobial assay against pathogenic bacteria (Table 3). Format: cell-based. To be noted: 37.6 μg/ml; 10 mM phosphate buffer, 3 hours. As for the experimental part: as §1
(§2) Purified lacritin variant proteins at the concentrations shown were incubated with selected pathogenic bacteria in 10 mM phosphate buffer for 3 hours as described in the antimicrobial assay. The total number of colonies were counted and the percent cell death determined using [1-(colonies surviving peptide incubation)/(colony count from PBS control)]×100. N-XX denotes the number of amino acids removed from the N-terminal of mature lacritin.

The subject of a further data set is Pseudomonas aeruginosa. The description is as above. Format: cell-based. Conditions: 10 mM phosphate buffer, 3 hours. As for the experimental part:
as §1, §2

The next data set relates to Staphylococcus aureus. The data set is described as above. Format: cell-based. To be noted: 26.3 μg/ml; 10 mM phosphate buffer, 3 hours. As to the method: as §1, §2
Where [4] appears, read: FIG. 5, concentrations only shown in the figure.
Setting [5] is: FIG. 5, concentrations only shown in the figure, PB control 161×10^3 CFU/ml.

Turning to “N-72: mature lacritin with 72 amino acids removed from the N-terminal (ILLTEQALAKAGKGMHGGVPGGKQFIENGSEFAQKLLKKFSLLKPWA; UniProt Q9GZZ8 92-138, looked up, fragment) [Construct N-72]”, the “LC50 (lethal concentration required to kill 50 percent of E. coli)” value with E. coli (ATCC #10536) is 7.5 µg/mL.

For “N-80: mature lacritin with 80 amino acids removed from the N-terminal (AKAGKGMHGGVPGGKQFIENGSEFAQKLLKKFSLLKPWA; UniProt Q9GZZ8 100-138, looked up, fragment) [Construct N-80]”, the “LC50 (lethal concentration required to kill 50 percent of E. coli)” value in the data set with E. coli (ATCC #10536) is “Not Active”.

As for “N-73: mature lacritin with 73 amino acids removed from the N-terminal (LLTEQALAKAGKGMHGGVPGGKQFIENGSEFAQKLLKKFSLLKPWA; UniProt Q9GZZ8 93-138, looked up, fragment) [Construct N-73]”, the “LC50 (lethal concentration required to kill 50 percent of E. coli)” value in the data set on E. coli (ATCC #10536) was 8.0 µg/mL.

With “MKSIVEKSILLTEQALAKAGKGMHGGVPGGKQFIENGSEFAQKLLKKFSLLKPWA [Construct N-65]”, the “LC50 (lethal concentration required to kill 50 percent of E. coli)” value in the data set with E. coli (ATCC #10536) is 5.5 µg/mL.

On to “MSILLTEQALAKAGKGMHGGVPGGKQFIENGSEFAQKLLKKFSLLKPWA [Construct N-71]”, for which the “LC50 (lethal concentration required to kill 50 percent of E. coli)” value with E. coli (ATCC #10536) is 8.0 µg/mL.

B1: Lacritin: full length recombinant mature human lacritin without signal peptide, 119 amino acids, SEQ ID NO:27 (protein, listed as Homo sapiens)
chain: EDASSDSTGADPAQEAGTSKPNEEISGPAEPASPPETTTTAQETSAAAVQGTAKVTSSRQELNPLKSIVEKSILLTEQALAKAGKGMHGGVPGGKQFIENGSEFAQKLLKKFSLLKPWA
In the case of B1, the “average colony forming units” value in the data set on E. coli (FIG. 4, 46 μg/ml, 25 mM NaCl, buffer control 77×10^3 CFU/ml) is 38×10^3 CFU/ml. Further, the “CFU as % of the control” value with E. coli (FIG. 4, 46 μg/ml, buffer control 77×10^3 CFU/ml) is reported as 49%. In addition, the “LC50 (lethal concentration required to kill 50 percent of E. coli)” value in the data set with E. coli (ATCC #10536) is 11.0 µg/mL. Moreover, in data set [1], the tear production entry is “increases tear production”. Besides, the “inner membrane permeabilization (ONPG to ONP conversion, 415 nm)” value with E. coli ML-35 is on record as “damage the cell membrane”. In addition, the cell growth entry in data set [2] is recorded as “promotes new cell growth”.

B2: N-35: mature lacritin with 35 amino acids removed from the N-terminal (protein, listed as Homo sapiens)
chain: METTTTAQETSAAAVQGTAKVTSSRQELNPLKSIVEKSILLTEQALAKAGKGMHGGVPGGKQFIENGSEFAQKLLKKFSLLKPWA
With B2, the “% of the bacteria killed” value in the data set on E. coli (setting [4]) was determined as 84%. The “CFU as % of the control” value in the data set on E. coli (setting [5]) worked out at 16%. The “average colony forming units” value with E. coli (setting [5]) is 25×10^3 CFU/ml. Also, the “LC50 (lethal concentration required to kill 50 percent of E. coli)” value in the data set with E. coli (ATCC #10536) is 1.5 µg/mL. The “Cell Death %” value in data set [3] amounted to 69%; in the data set with Pseudomonas aeruginosa (36.8 μg/ml) it was 95%.

B3: N-45: mature lacritin with 45 amino acids removed from the N-terminal (protein, listed as Homo sapiens)
chain: MAAAVQGTAKVTSSRQELNPLKSIVEKSILLTEQALAKAGKGMHGGVPGGKQFIENGSEFAQKLLKKFSLLKPWA
Consider B3, for which the “% of the bacteria killed” value in the data set on E. coli (setting [4]) is reported as 74%. For the same molecule, in the data set on E. coli (setting [5]), the “CFU as % of the control” value is given as 26% and the “average colony forming units” value is on record as 42×10^3 CFU/ml. Also, the “LC50 (lethal concentration required to kill 50 percent of E. coli)” value in the data set on E. coli (ATCC #10536) was 1.0 µg/mL. Further, in the data set on Staphylococcus aureus, the “Cell Death %” value was 58%. For the same molecule, the “Cell Death %” value in the data set with Pseudomonas aeruginosa (23.0 μg/ml) is 99%.
